The source of these data is patent US7256011.

This data set concerns PL-FXa-b2AR fusion protein (ED - Factor Xa cleavage site - beta2-adrenergic receptor) on HEK293 transient transfectant cells.

As for Factor Xa, the “EFC activity (relative luminescent units, RLU)” value is given as “a difference in about 30,000 RLUs was observed over a range in concentration of FXa of about 10^-3 to 10^1 ug/mL”.
